From the nanobody polyreactivity screen of Harvey et al. (2022)

assay: yeast display, Sf9 membrane polyspecificity reagent, FACS + sequencing; frameworks hold sequencing errors
Outline: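 After 36–48 hours of galactose induction, yeast (Saccharomyces cerevisiae BJ5465) displaying a synthetic nanobody library were stained at 4 °C for 1 hour with 10% biotinylated, detergent-solubilized Sf9 membrane reagent. Streptavidin microbeads enriched the stained cells before FACS sorting into low and high (top ~1%) gates on anti-HA and streptavidin fluorescence. Each clone's polyreactivity label reflects its gate of origin.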

Sequence | polyreactivity (PSR sort gate)
QVQLVESGGGLVQAGGSLRLSCAASGRTFSRNAMGWYRQAPGKERELVAAISQRGVSTYYADSVKGRFTISRDNAKNTVYLQMNSLKPEDTAVYYCNTRGTYRYDYWGQGTQVTVSS | low polyreactivity
QVQLVESGGGLVQAGGSLRLSCAASGSTFGLYVMGWYRQAPGKERELVAAINRICSRTYYADSVKGRFTISRDNAKNTVYLQMNSLKPEDTAVYYCAADYDYTSPGDDYWGQGTQVTVSS | high polyreactivity
QFQLVESGGGLVQAVVSLRLSCAASGSIFDIYDMGWYRQAPGKETELDAAIRSGDRTHYADSVKGRFTISRDNAKITVYLQMNSLKPEDTAVYYCAADRYIYLNREHDYWGQGTQVTVSS | low polyreactivity
QVQLVESGGGLVQAGASLRLSCAASGRTFEANTMGWYRQAPGKERELVAAITRNGGSTYYADSVKGRFTISRDNAKNTVYLQMNSLKPEDPAVYYCAARSAYRSRHKYDYWGQGTQVTVSS | high polyreactivity
QVQLVESGGGLVQAGGSLRLSCAASGRTISFYAMGWYRQAPGKERELVAAISRSGGSTYYADSVKGRFTISRDNAKNTVYLQMNSLKPEDTAVYYCAARDQYRWYKYDYWGQGTQVTVSS | high polyreactivity
QVQLVESGGGLVQAGGSLRLSCASSGRTIDGYAMGWYRQAPGKERELVATITWSGDSTYYADSVKGRFTISRDNAKNTVYLKMNSLKPEDTSVYYCAADSYYAYPYGYGYWGQGTQVTVSS | high polyreactivity
QVQLVESGGGLVQAGGSLRLSCAASGFIFYDYAMGWYRQAPGKERELVAAITVDGGTTYYADSVKGRFTISRDNAKNTVYLQMNSLKPEDTAVYYCAADTYYGFDSNYEYWGQGTQVTVSS | low polyreactivity
QVQLVESGGGLVQAGGSLRLSCAASGSIFKFNTMGWYRQAPGKERELVASITRVGSTYYADSVKGRFTISRDNAKNTVYLQMNSLKPEDTAVYYCAARFLYYTYKTFRTYDYWGQGTQVSVSS | high polyreactivity
QVQLVESGGGLVQAGGSLRLSCAASGSTFSYYAMGWYRQAPGKERELVAAISSRGGSTYYADSVKGRFTISRDNAMNNVYLQMNSLKPEDTAVYFCNADHQFRSSVSGDHDFWGQGTQVTVSS | high polyreactivity
QVQLVESGGGLVQARGSLRLSCAASGFTFDFYAMGWYRQAPGKERELVAAISKNDGTTYYADSVKGRFTISRDNAKNTVYLQMNSLKREDTAVYYCAAESGYPDYTYVSSGDYWGQGTQVTVSS | low polyreactivity
QVQLVESGGGLVQAGGSLRLSCAASGRIFWSNAMGWYRQAPGKERELVAAISYSGGSTYYADSVKGRFTISRDNAKNTVYLQMNSLKPEDTAVYYCAALFRPRVHRFDYWGQGTQVTVSS | low polyreactivity
QVQLVESGGGLVQAGGSLRLSCAASGFIFRWYAMGWYRQAPGKERELVASINWSGSRTNYADSVKGRFTISRDNAKYTVYLQMNSLKPEDTAVYYCNAYGGLQYDYWGQGTQVSVSS | high polyreactivity
QDHLVESGGGLVQAGGSLRLSCAASGNIIWWNAMGWYRQAPGKERELVAAITSDSTTYYADSVKGRFTISRDNAKNTVYLQLNSLKPEDTAVYYCAAYSYGGQGVDYGYWGQGTQVTVSS | low polyreactivity
QVQLVESGGGLVQAGGSLRLSCAASGITFANYAVGWYRQAPGKERELVAAISTSGGSTYYADSVKGRFTISRDNAKNTVDLQMNSLKPEDTAVYYCAARPYPWANFGYWGQGTQVTVSS | high polyreactivity
QVQLVESGGGLVQAGGSLRLSCAASGSTFYPYAMGWYRQAPGKERELVASISSRGGTTYYADSVKGRFTISRDNAKNTVYLQMNSLKPEDTAVYYCAARLTYAERKWPTKYYWGQGTQVTVSS | high polyreactivity
QVQLVESGGGLVQAGGSLRLSCAASGFIFYSNAMGSYRQAPGKERELVASITGDGGTTYYADSVKGRFTISRDNAKTTGYLEMNSLKPEDTAVYYCAKDYIYRGYYTDFRYEDYDYWGQGTQVTVSS | low polyreactivity
QVQLVESGGGLVQAGGSLRLSCAASGFIFYYYAMGWYRQAPGKERELVAAISKSGGSTYYADSVKGRFTISRDNAKKTVYLQMNSLIPEDTAVYYCAAVVTTWPYYGFGYWGQGTQVTVSS | high polyreactivity
QVQLVESGGGLVQAGGSLRFSCAASGFIFSFYAMGWYRQAPGKERELVAAISSSGSTNYADSVKGRFTISRDNAKNTVYLQMNSLKPEDTAVYYCAARWHRSRAGYYYWGQGTQVTVSS | high polyreactivity
PVQLVESGGGLVQAGGSLRLSCAASGIIFYRNAMAWYRQAPGKERELVAAITSSGGRTYYAYSVKGRFTISRDNAKNTVYLQMNRLKPEDTAVYYCAATRLYWKIFYGDGDYWGQGTQVTVSS | high polyreactivity
QVQLVESGGGLVQAGGSLRLSCAASGRTFAYTDMGWYRQAPGNERELVAAISWSDGTTYYADSVKGRFTISRDNAKNTVYLQMNSLKPEDTAVYYCAAESYPSEVASYVSEYDYWGQGTQVTVSA | low polyreactivity
QVQLEESGGRLVQAGASLRLSCAASGSIFEDYVMGWYRHAPGKERELVADITSGGTTYYADSVKGRFTISRDYAKNTVYLQMNRLKPEATAVYYCNAYLIVDYGDETPYASLHDYWGQGTQVTVSS | low polyreactivity
QVQLVESGGGLVQAGGSLRLSCAASGITFRYYAMGWYRQAPGKERELVAAITRGGRTNYADSVKGRFTISRDNAKNTVYLQMNSLKPEDAAVYYCATGRDSNFGNSYYYWGQGTQVTVSS | high polyreactivity

Sequence | polyreactivity (PSR sort gate)
QVQLVESGGGLVQAGGSLRLSCAASGRIFAVYAMGWYRQAPGKERELVAAISWSGGRTNYADSVKGRFTISRDNAKKTVYLQMNSLKPEDTAVYYCNARQWRFGFVASGGKYNYWGQGTQVTVSA | high polyreactivity
QVQLVESVGGLVQAGGSLRLSCAASGFIFRGYALGWYRQARGKEWELVAAMNAGDSTNYADSVKGRFTISRDTAKNTVYLQMNSLKPEETAVYYCAASIYAALNGGPGYDYWGQGTQVTVSS | low polyreactivity
QVQLVESGGGLVQAGGSLRLSCAASGSNFHGNSLGRYRQGTGKERELVAAISQSGDSTYYADSVKGRFTISRDNAKNTVYLQMNSLKPEDTAVYYCAARSGYRGYYHFYYWGQGTQVTVSS | high polyreactivity
QVQLVESGGGLVQAGGSLRLSCAASGSIFGRNAMGWYRPAPGKERELVAAISRRGGNTYYADSVKGRFTISRDNAKNTVYLQMNSLKPEDTAVYYCAAEVKTSYSYTHDGYWGQGTQVTVSS | high polyreactivity
QDQLVESGGGLLQAGGSLRLSCAASGFTFSIYAMGWYRQAPGKERELVAAISSSSSTNYADSVKVRFTISRDNAKNTVYLQMNSLKPEDTEVYYCNADNVGNTFTWYDYWGQGTQVTVSS | low polyreactivity
QVHLVESGGGLVQAGGSLRLSCAASGRTFWNYAMGWYRQAPGKEREFVAVIRFSDGSTYYADSVKGRFTISRDNAKNTVYLQMNSLKPDDTAVYYCAAKGPRRWGSGFDYWGQGNQVTVSS | low polyreactivity
QVQLVESGGGLVQAGGSLRLSCAACGITFTSNAMGWYRQAPGKERELVASISWSDDNTHYADSVKGRFTISRDNAKYTVYLQMNSLKPEDTAVYYCAADGTHPRPGTYKFDYWGQGTQVTVSS | low polyreactivity
QFQLVESGGGIVQAGGSLRLSCYASGTFYKYAMGWNTQAPGKERELVAAISWRGGRTYADSVKGRFTISRDNAKNTVYLQMNSLIPEDTAVYYCYKRFYPEHYYWGQGTQVTVSS | high polyreactivity
QVQLVESGGGLVQAGGSLLLSCAASGRIFRYNAMGWYRQAPGKERELVAAISWTVGRTYYADSVKGRFTISRDNAMNTVYLQMNSLKPEDTAVYYCATYFRVWYRSYDYWGQGTQVTVSS | high polyreactivity
QVQLVESGGGLVQAGGSLRLSCAASGFTFASNVMGWYRQAPGKERELVAAITSGASTNYADSVKGRFTISRDNAKNTVYLQMNSLKPEDTAVYYCAAGRQWYVFYEFDYWGQGTQVTVSS | high polyreactivity
QVQLVESGGGLVQAGGSLRLSCAASGLTFAFYAMGWYRQAPGKEREFVARIRTSAITYYADSVKGRFTISRDNAKTTVYLQMNSLKPEDTAVYYCAVSWNKLRDSSLYAYYYWGQGTQVTVSS | high polyreactivity
QVQLVESGGGLVQAGGSLRLSCAASGRIFRLYAMGWYRQAPGKERELVAAISKSGGSTYYADSVKGRFTISRDNAKNTVYLQMNSLKPEDTAVYYCAADYRTHGGYEGTFDYWGQGTQVTVSS | low polyreactivity
QVQLVESGGGLVQAGGSLRLSCAASGGIFTYYAMGWYRQAPGKERELVAAISASGGSTYYADSVKGRFTISRDNAKNTVYLQMNSLKPEDTAVYYCAAGLPYGYGYDYWGQGTQVTVSS | low polyreactivity
QVQLVESGGGLVQAGGSLRLSCAASGSTFVINAMGWYRQAPGKERELVADIDYRGGSTNYADSVKGRFTISRDNAKNTVYLPMNSLKPEDTAVYYCNKRYVIRRRGYDYWGQGTQVTVSS | low polyreactivity
QVQLVESGGGLVQAGGSLRLSCAASAGTFWNAMGWYRQAPGKERELVATITSGSSTNYADSVKGRFTISRDNAKNTVYLQMNSLKPEDTAVYYCNARTIPWPYIVSYDYWGQGTQVTVSS | high polyreactivity
QVQLVESGGGLVQAGGTLRLSCAASGSIVQSYAMGWYRQAPGKERELVAAITERGGSTYYADSVKGRFTISRDNAKNTVYLQMNSLKPEDTAVYYCAAKAVGLGKSWRGDDYWGQGTQVTVSS | low polyreactivity
QVQLVESGGGLVQAGGSLRLSCAASGITFRRNAMGWSRQAHGQVRELVAAITRSGGSTYYADSVKGRFTISRDNAKNTVYLQMNSLKPEDTADYYCAADNTNDEDTGYYWGQGTQVTVSS | high polyreactivity
QVQLQERGGGLVQAGGSLLSCAASGTISYYREMGWYRQAPGKERELVAGIGVGTITYYADSVKGRFTISRDNAKNTVYLQMNRLKPEDTAVYFCAAHIDGNDSHAYWGQGTQVTVSS | low polyreactivity
QVQLVESGGGLVKAGGSLGLSCAASGSIFGVNAMGWYRQAPGKERELVAAISKRGGTTYYADSVKGRFTISRDNAKNTVYVQRHSLKPEDTAVYYCNAPYLWNYYGGRYDYWGQGTQVTVSS | high polyreactivity
QVQLVESGGGLVHAGGSLRLSCAASGRIFYYNAMGWYRQAPGKEREFVAAIRSSGGSTYYSDSVKGRFTISRDNAKNTVYLQMNSLKPEDTAVYYCAADFYGLGDYGVDYWGQGTQVTVSS | low polyreactivity
QVQLQESGSGQVQAGGSLRLSCAASGAIFPAYLMGWYRQAPGKERELVAGISYGSITYCADSVKGRFNISRDNAKNTVYLQMNSLKPEDTAVYYCAVWRPGGDEYYYWGQGTQVTVSS | low polyreactivity
